In data set [1] the test system is MS2 coat protein. Kind of data set: apparent KD of MS2 coat protein, switch ON state; designed switch direction (-1 OFF switch, 1 ON switch): -1; higher = weaker reporter binding. The settings on record: FMN input: 0 or 200 uM; Eterna round: R93 (includes R88 designs). The method, boiled down:
(§1)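 Values are apparent KD, taken as the median for each design of fits to normalised binding curves from individual clusters. The designed RNA switches were transcribed on-chip from Illumina sequencing clusters and exposed to SNAP-549-labelled MS2 coat protein at twofold increasing amounts from 0.7 or 1.5 nM to 3 µM. Titration used 100 mM Tris-HCl pH 7.5, 80 mM KCl and 4 mM MgCl2, without or with constant ligand.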

Data set [2] has as its system MS2 coat protein. Briefly: apparent KD of MS2 coat protein, switch OFF state (with FMN for OFF switches, without FMN for ON switches); designed switch direction (-1 OFF switch, 1 ON switch): -1; higher = weaker reporter binding. The settings on record: FMN input: 0 or 200 uM; Eterna round: R93 (includes R88 designs). The method in brief:
as §1

Take “AAGAAACAUGAGGAUCACCCAUGUGAGGAUAUCCAAGAAAGAAAGAAAGAAAGAAGAAGGAGAAGGCACAAAGG [Quintus Ostorius Scapula]”: the “apparent KD of MS2 coat protein” value is 50.5 nM in the data set on MS2 coat protein [1] and 119 nM with MS2 coat protein [2].
For the sequence “ACUAAUGAAGGAUAUACAAACAAAAAAAAAACAACAAACAAACAUGAGGAUCACCCAUGUAGAAGGUCAAAAAU [JR_Exc002_Sub1202]”, the “apparent KD of MS2 coat protein” value is 22.2 nM with MS2 coat protein [1] and 17.8 nM with MS2 coat protein [2].
Consider “AAGAACGAAGGAUAUACAUGAGGAUCACCCAUGUAAAAGAAAGAGGGAAAAGAGAAAAGUAGAAGGUCGAAGAA [Ptolemy VIII Euergetes II]”, for which the “apparent KD of MS2 coat protein” value was found to be 20.4 nM with MS2 coat protein [1] and 23.8 nM in the data set with MS2 coat protein [2].
For the sequence “AAAAAGUCAGGAUAUGUAGCAAAAGGUGAUCAAAAAAAGCUACAGAAGGGACAUGAGGAUCACCCAUGUAAAAA [Ex4: 937]”, the “apparent KD of MS2 coat protein” value in the data set with MS2 coat protein [1] was 139 nM; in the data set on MS2 coat protein [2], 156 nM.
On to “AGGGAGUAAGGAUAUGCAUAUAAUGAAGAGAAAGAAAAGAAGCAGAAGGUACAUGAGGAUCACCCAUGUAAAAA [milkweed 2]”, for which the “apparent KD of MS2 coat protein” value with MS2 coat protein [1] was 28.4 nM; with MS2 coat protein [2], 22.7 nM.
With “AAUAAGUGAGGAUAUGUGAAUAGUAGAUAAGAUUCCCUAAAACAGAAGGCACAUGAGGAUCACCCAUGUAAAUA [JR_Exc004_Sub008]”, the “apparent KD of MS2 coat protein” value in the data set on MS2 coat protein [1] is 26.2 nM; with MS2 coat protein [2], 24.1 nM.
“AAAAAACAUGAGGAUCACCCAUGUUAGGAUAUGCUAUGGAAAAAUAAAAUAAAACAUAGCAGAAGGGACAAAAA [Mat - Exclusion 1 - Eli mod - D28]”: the “apparent KD of MS2 coat protein” value was 15 nM with MS2 coat protein [1] and 38.3 nM in the data set on MS2 coat protein [2].
As for “GAAAAGGCAGGAUAUGCAAGGAUAUAGAAGGAAAAAAAAAAACAUGAGGAUCACCCAUGUAGAAGGGCCAAAAG [salish99-ex2-10]”, the “apparent KD of MS2 coat protein” value with MS2 coat protein [1] stood at 57.2 nM; in the data set with MS2 coat protein [2], 33.5 nM.
Turning to “AAAAAACAUGAGGAUCACCCAUGUAAGGAUAUGCGAAAAUAAAAUAAAAUAAAAUAAAGCAGAAGGUACAAAAA [66%, Wbt, 1]”, the figures for the “apparent KD of MS2 coat protein” value with MS2 coat protein [1] and with MS2 coat protein [2] were 32.6 nM and 37.7 nM, respectively.
For the sequence “GAAAAGUCAGGAUAUGUACAAAAUAAAAUAAAAAUAAAAGUACAGAAGGGACAUGAGGAUCACCCAUGUAAAAG [Mat - Exclusion 4 - Mayanna - D120]”, the “apparent KD of MS2 coat protein” value stood at 72.4 nM in the data set on MS2 coat protein [1] and 54.2 nM in the data set with MS2 coat protein [2].
As to “UAAAGACAUGAGGAUCACCCAUGUGAGGAUAUCGGAGAUAACGGAACAUCAAGUUCGGCGAGAAGGCGCAGGAA [JR_Exc001_Sub405]”, the “apparent KD of MS2 coat protein” value in the data set with MS2 coat protein [1] worked out at 33.4 nM; in the data set on MS2 coat protein [2], 38 nM.
For “GGAUGUGUAGGAUAUACAUGAGGAUCACCCAUGUGAGAGAAAAAAGUGAGAAAGAAAAGUAGAAGGACGUGUCG [salish99-ex3-89]”, the “apparent KD of MS2 coat protein” value in the data set on MS2 coat protein [1] was 41 nM; in the data set with MS2 coat protein [2], 38 nM.
Turning to “AGUCGGCGAGGAUAUACAUGAGGAUCACCCAUGUGAGAGAAAAAAGUGAGUUAGACAAGUAGAAGGCGCUGACA [JL Lego Mod 7]”, the entries for the “apparent KD of MS2 coat protein” value in the data set with MS2 coat protein [1] and in the data set with MS2 coat protein [2] were 44.1 nM and 172 nM, respectively.
For the sequence “ACAAGAUCAGGAUAUACAUGAGGAUCACCCAUGUAUAUCAAAAAGGGACUUACUUAAUGUAGAAGGGAUCAUGU [EX3 280: Random 16]”, the “apparent KD of MS2 coat protein” value was 12.7 nM in the data set with MS2 coat protein [1] and 13.9 nM in the data set with MS2 coat protein [2].
On to “AAGAAACAUGAGGAUCACCCAUGUGAGGAUAUCGAAAAGAAAAGAAAAGAAAGAAGAACGAGAAGGCACAAAGG [Neferkare (V) Tereru]”, for which the “apparent KD of MS2 coat protein” value is 52.7 nM with MS2 coat protein [1] and 76.2 nM in the data set on MS2 coat protein [2].
Turning to “GAAAACAGAGGAUAUACGGGAUUGACACGAAAAGUGCAAAAACAUGAGGAUCACCCAUGUAGAAGGCUGAAGAA [Meechl MS2... 60% 2]”, the “apparent KD of MS2 coat protein” value with MS2 coat protein [1] amounted to 31.5 nM; with MS2 coat protein [2] it was 42.5 nM.
“AAGAAGCAAGGAUAUACAUGAGGAUCACCCAUGUAAAAGAAAGAAAAGGGAAAGAAAAGUAGAAGGUGCAAGAA [Menmaatre Seti I]”: the “apparent KD of MS2 coat protein” value in the data set on MS2 coat protein [1] turned out to be 21.6 nM; with MS2 coat protein [2], 27 nM.
With “AAAAAACAUGAGGAUCACCCAUGUGAGGAUAUGACGUAAAUAAAGAAAGAAGAAAUCGUCAGAAGGCACACCUA [Disincluded 2 (MS2 Riboswitches)]”, the “apparent KD of MS2 coat protein” value with MS2 coat protein [1] stood at 25.7 nM; in the data set on MS2 coat protein [2] it was 45.7 nM.
On to “AAAAAACAUGAGGAUCACCCAUGUAAGGAUAUGCUAAAAAACACGGAAAAACGUGAUAGCAGAAGGUACAAAAG [Mat - Exclusion 1 - Eli mod - D87]”, for which the “apparent KD of MS2 coat protein” value in the data set on MS2 coat protein [1] worked out at 25.5 nM; in the data set on MS2 coat protein [2] it was 31.2 nM.
Turning to “AAAACGGUAGGAUAUACAUGAGGAUCACCCAUGUUAAAUUUAAAAAUAAAAUUAAAAUGUAGAAGGACCAAAAA [Mai Tai1]”, the figures for the “apparent KD of MS2 coat protein” value in the data set with MS2 coat protein [1] and in the data set on MS2 coat protein [2] were 31.5 nM and 35 nM, respectively.
For “AGCAAGUUAGGAUAUGCGAAGUCAGGACACACACUGACGAAGCAGAAGGAACAUGAGGAUCACCCAUGUAAGCA [JR_Exclusion-4 65% 4]” the same measures were 22 nM and 16.6 nM.
For “AACAGUACAGGAUAUACAUGAGGAUCACCCAUGUAGAGAGAAUAAAACAAAAAUAAAUGUAGAAGGGUACUGAA [Mat - Exclusion 3 - Eli mod - D68]” the same measures were 24.5 nM and 25.5 nM.
For “AAAACGGUAGGAUAUACAGUCCGUUGUCGAAUGAUGAAAAGACAUGAGGAUCACCCAUGUAGAAGGACCGAAAA [Bienor]” the same measures were 36.5 nM and 138 nM.
Turning to “AAAAAACAUGAGGAUCACCCAUGUGAGGAUAUGCGAAAAAAAAAAUAAAAAAAAAAAAGUAGAAGGUACAAAAA [LROPPY Exclusion 1 - v08_deltaG=5.44]”, the figures for the “apparent KD of MS2 coat protein” value in the data set on MS2 coat protein [1] and in the data set on MS2 coat protein [2] were 27.9 nM and 26.9 nM, respectively.
“ACGUACUCAGGAUAUACGAACAUGUCAAAAGACGUGAAGGGACAUGAGGAUCACCCAUGUAGAAGGGAGUACGA [Mat - Exclusion 2 - JL mod - D6]”: the figures for the “apparent KD of MS2 coat protein” value with MS2 coat protein [1] and in the data set on MS2 coat protein [2] were 33.6 nM and 148 nM, respectively.
In the case of “AUCGAUCGAGGAUAUACAUGAGGAUCACCCAUGUAAAAAAAAAAAAAGUCCUCAGGACGUAGAAGGCGACGCAA [JR_Exc003_Sub401]”, the “apparent KD of MS2 coat protein” value was determined as 16.6 nM with MS2 coat protein [1] and 22.3 nM with MS2 coat protein [2].
“AAAAAGUCAGGAUAUACAUGAGGAUCACCCAUGUAGCAUACGAAAAAGAGUGUGCAGUGUAGAAGGGACAAAAA [Exclusion3-cac3]”: the “apparent KD of MS2 coat protein” value in the data set with MS2 coat protein [1] was found to be 19.5 nM; with MS2 coat protein [2], 21.2 nM.
With “AGCACGGUAGGAUAUACGAACAAAACGGGAGAACUAAAGGGACAUGAGGAUCACCCAUGUAGAAGGACCAAGCA [Diamond 90]”, the “apparent KD of MS2 coat protein” value in the data set with MS2 coat protein [1] is 42 nM; with MS2 coat protein [2], 119 nM.
For the sequence “ACGUCGGGAGGAUAUACAUGAGGAUCACCCAUGUAAAGCGGGAAAGACGUUUAGUCGAGUAGAAGGCCUGAAGU [JR_Exc003_Sub1709]”, the figures for the “apparent KD of MS2 coat protein” value in the data set on MS2 coat protein [1] and in the data set on MS2 coat protein [2] were 26.1 nM and 45.5 nM, respectively.
“GGAUGCCAAGGAUAUACAUGAGGAUCACCCAUGUGAGAGAAAAAAGUGAGAAAGAAAAGUAGAAGGUGGUGUCG [salish99-ex3-92]”: the “apparent KD of MS2 coat protein” value was 33.1 nM in the data set with MS2 coat protein [1] and 65.2 nM in the data set with MS2 coat protein [2].

Values taken from the supplement of paper PMC9170038.
